Data as given in the supplement of paper PMC10724198.
± gives the standard deviation of the averaged measurements.

Each sequence was assayed on Saccharomyces cerevisiae (assay: protein stability index of tFT-peptide fusion (C-terminal peptide) (PSI (0-1 scale)); higher = more stable (slower turnover)). Conditions: genetic background: wild type; temperature: 30 C.
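Further: PSI is a weighted mean of sequencing reads over stability bins, variants kept only with over 10 reads, mCherry proximal and sfGFP distal, peptide attached via GGGS linker.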

Sequence	protein stability index
LRFVTAGEFEMK	0.635 ± 0.061
LRGIGVSWWKGL	0.583 ± 0.023
LRGLLWFSRVGS	0.618 ± 0.011
LRGNDRLLSKRI	0.694 ± 0.022
LRGSDYIVIGGS	0.656 ± 0.025
LRGVDYEQMSDP	0.667 ± 0.11
LRHLLAPPPRPP	0.649 ± 0.016
LRHLPHPTCSLL	0.7 ± 0.06
LRKTNQKIRSFK	0.614 ± 0.037
LRLLPRIVSPSV	0.6 ± 0.022
LRLLSFFITSFL	0.64 ± 0.13
LRPFSPSPPRPF	0.705 ± 0.013
LRPLSPPTLLPA	0.664 ± 0.022
LRPPPAAHSLGP	0.645 ± 0.012
LRQWRRERAIII	0.601 ± 0.042
LRRLSSIGWSRI	0.754 ± 0.14
LRSLSLSYVALR	0.6592 ± 0.0017
LRSVNVLAALFS	0.686 ± 0.043
LRVNFPLHDPHP	0.65 ± 0.049
LRVSPVALPSSW	0.81 ± 0.13
LSADVNRRLGLS	0.674 ± 0.035
LSAFLLLMPRLP	0.659 ± 0.01
LSALPLTRPLAR	0.709 ± 0.043

Sequence	protein stability index
LSALSLFLFFLR	0.58 ± 0.046
LSAPLPPLSAPP	0.667 ± 0.0099
LSAQNNTGIVKT	0.623 ± 0.0084
LSATGSCSPRRG	0.693 ± 0.014
LSCLIPLPAPPL	0.662 ± 0.052
LSCRLDGIVIWF	0.64 ± 0.051
LSFLAPGPPPAR	0.735 ± 0.039
LSGRQKLNMSIR	0.682 ± 0.029
LSHAQIDPEFTE	0.697 ± 0.042
LSHIPDRQRLKP	0.715 ± 0.062
LSHPPPPPSSAT	0.716 ± 0.027
LSHSSPLFSPLV	0.72 ± 0.0077
LSIGDLTIEKKL	0.686 ± 0.022
LSISPSPPPPLW	0.706 ± 0.052
LSKSPRPARCSA	0.6091 ± 0.0024
LSLGGSPSKRRP	0.648 ± 0.029
LSLPPHASPTPS	0.735 ± 0.055
LSLTRIFQLTRW	0.721 ± 0.023
LSPAPPHRYSPY	0.7 ± 0.043
LSPASPGPFLSC	0.72 ± 0.022
LSPCVGGLFGVV	0.693 ± 0.017
LSPFCIRSLRPD	0.647 ± 0.069
LSPPAPPLLFSP	0.691 ± 0.035

Sequence	protein stability index
LSPPPHTSVPRL	0.659 ± 0.12
LSPPYCPGALTL	0.646 ± 0.0081
LSPVSPRPLLPV	0.773 ± 0.12
LSPYFWITEDAS	0.7028 ± 0.0051
LSRPCPFYPPPR	0.701 ± 0.037
LSSFFLLPCLSS	0.576 ± 0.021
LSSFHCIVTVKD	0.652 ± 0.028
LSSFPLPFPPPL	0.659 ± 0.013
LSSPPSPRAFLP	0.723 ± 0.065
LSSSVAPLIPPP	0.767 ± 0.031
LSSVFLGICIMS	0.543 ± 0.11
LSSWPFLPLVRI	0.593 ± 0.02
LSTPPLPRPYPP	0.654 ± 0.038
LSTPSLFTPFRA	0.715 ± 0.024
LSVMLEGLFGLL	0.662 ± 0.018
LSVWPHSVPSFV	0.659 ± 0.036
LSYQTGTTRTRK	0.728 ± 0.056
LTFSPPERLSFH	0.737 ± 0.12
LTGGNPLTQDGD	0.689 ± 0.019
LTHLADVRSVLS	0.708 ± 0.043
LTHLLTSHTNII	0.746 ± 0.081
LTNGQRSLCLCS	0.6537 ± 0.0048
LTPNSLCSFLSR	0.702 ± 0.013

Sequence	protein stability index
LTPSLPLPPSET	0.654 ± 0.047
LTRKTPQKRAPQ	0.704 ± 0.013
LTRLETSNITAI	0.679 ± 0.041
LTSVQFNKWTIE	0.714 ± 0.047
LTTMSPGLLRRP	0.639 ± 0.065
LTTRTQTDDRKR	0.682 ± 0.0077
LTVRVTSQPFDL	0.658 ± 0.015
LVCTLLGAASAP	0.708 ± 0.033
LVFAAGCVGGVR	0.633 ± 0.021
LVGGGGGVGSLV	0.628 ± 0.042
LVGGGVGVGSLV	0.66 ± 0.011
LVGRAITTLPPV	0.66 ± 0.037
LVGSRGCGKIVW	0.6 ± 0.026
LVIWSFYSEGIV	0.52 ± 0.017
LVLFFPMLRIRI	0.515 ± 0.041
LVLGFDVTPGTF	0.728 ± 0.017
LVLHWPSPREAL	0.713 ± 0.071
LVLTPPLLSLYP	0.683 ± 0.0083
LVPLFVLPYGHP	0.768 ± 0.073
LVQCSAISARRF	0.735 ± 0.026
LVRFTDPIPQQA	0.615 ± 0.026
LVRGFVDKYVIS	0.652 ± 0.01
LVRLRRSLRLFL	0.539 ± 0.037

Sequence	protein stability index
LVRPRFSPPPTP	0.6882 ± 0.0057
LVRVLHRSHASA	0.685 ± 0.031
LVSPPSPPLPPP	0.728 ± 0.12
LVVSHDSSLMMR	0.7363 ± 0.0045
LVVTTLQSVVLG	0.559 ± 0.085
LVVVRTGPPRWY	0.669 ± 0.0073
LVWLGCGLGGLC	0.745 ± 0.054
LWCCVFGLPSRG	0.696 ± 0.072
LWCDTRIDMSRH	0.737 ± 0.038
LWCFVVGEVNGV	0.6209 ± 0.0034
LWFCGLWPRVSG	0.6384 ± 0.00068
LWGPGAVWGRGR	0.699 ± 0.049
LWGPGGVWGRGR	0.697 ± 0.05
LWIVLFRKCELP	0.592 ± 0.018
LWKVVAPRDESP	0.67 ± 0.023
LWPLPSASVILL	0.515 ± 0.12
LWPYSRYSFSPP	0.726 ± 0.02
LWSICWNRVFPF	0.6973 ± 0.0017
LWVGSGGARCVV	0.624 ± 0.03
LYGLFRIADVRR	0.652 ± 0.15
LYGSIPFGCRIL	0.94 ± 0.018
LYPLTPWYVVPP	0.715 ± 0.11
LYSFSIPPSLGS	0.735 ± 0.085

Sequence	protein stability index
LYSPPPPPIPSP	0.7046 ± 0.0067
LYWSGFCPVFWG	0.7164 ± 0.0027
MANYIVEGGEPY	0.723 ± 0.025
MCVGGGCGRGGA	0.719 ± 0.14
MCVGSLMHKLRW	0.6988 ± 0.0043
MDDIAAYTGSCT	0.661 ± 0.032
MDTYIQKKKYIK	0.69 ± 0.0099
MENEDYIVRKKK	0.73 ± 0.054
MFGTVVFGAHRR	0.749 ± 0.015
MFVTQTGNRCKA	0.668 ± 0.018
MGFARDVYGSVC	0.702 ± 0.022
MGGTGRGGRREI	0.667 ± 0.04
MGGVGGLCGMWA	0.683 ± 0.036
MGPLHVMLQRAR	0.805 ± 0.16
MGVCLGPPTVWR	0.684 ± 0.043
MIKDVYIDNDNV	0.694 ± 0.02
MLFWDVGLLVFN	0.579 ± 0.049
MLFWPPPSLRMP	0.701 ± 0.0083
MLPTPSPPRPPF	0.698 ± 0.021
MNFCLGVFVDLA	0.6857 ± 0.0037
MRECGLSEARGG	0.651 ± 0.021
MRKGNGGGPRRR	0.728 ± 0.019
MRLTLGSHMAYY	0.69 ± 0.082

Sequence	protein stability index
MTRGRWAKKTAK	0.688 ± 0.038
MVKLGVGREEVV	0.655 ± 0.018
MVVEGLERWGRV	0.723 ± 0.045
MWPCRVRWLDHW	0.73 ± 0.034
MYASVGAIHPRL	0.738 ± 0.074
NACLRNPTTKGG	0.694 ± 0.086
NAFSHSASRVIS	0.682 ± 0.016
NAGNDVFSLDIC	0.683 ± 0.034
NCRGNLDFGPLV	0.727 ± 0.042
NDLRRAVSARYV	0.676 ± 0.032
NFGLYGAPFTLG	0.665 ± 0.041
NFNRKTNGVFRS	0.693 ± 0.059
NFRILIKKRGDE	0.643 ± 0.071
NGAGRGMVGGCG	0.666 ± 0.079
NGLACGSLTLLK	0.6738 ± 0.0019
NGPDAKTIEVRQ	0.658 ± 0.048
NGRTYIDEESKI	0.745 ± 0.16
NGVLRPMATGAP	0.666 ± 0.039
NGYASLGGEPKR	0.7576 ± 0.0041
NIHKNKKKGLKE	0.686 ± 0.0088
NIKEKEIKRQVR	0.693 ± 0.051
NIKKLSHRTRRI	0.857 ± 0.2
